# Reference: patent US20240124585A1 (SUTRO BIOPHARMA, published 2024)
# Where two headings read alike, the source gives them in different places.
# T1: cynomolgus CD3 epsilon (cynomolgus monkey, UniProt Q95LI5 22-117, limits assumed)
# T1 construct: Recombinant protein; also called cyno CD3E
# T1 sequence: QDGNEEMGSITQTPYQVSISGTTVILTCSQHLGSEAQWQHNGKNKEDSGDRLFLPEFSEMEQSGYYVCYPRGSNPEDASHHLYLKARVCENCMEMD
# How the values were obtained:
# [1] = biological target: T2, human CD3 epsilon (Acro Cat #CDE-H5223) (human, UniProt P07766 23-126); experiment: SPR (Biacore), antibody captured, human CD3 epsilon analyte
# T2 construct: Bought recombinant protein; also called rhCD3E
# Protocol: (§1) Anti-Fab or anti-Fc polyclonal antibodies were immobilized onto a CM5 chip (GE Life Sciences) using amine coupling chemistry (from Amine Coupling Kit, GE Life Sciences). The immobilization steps were carried out at a flow rate of 25 μl/min in 1×HBS-EP+ buffer (GE Life Sciences; 10× Stock diluted before use). The sensor surfaces were activated for 7 min with a mixture of NHS (0.05 M) and EDC (0.2 M). The Anti-Fab or Anti-Fc antibodies were injected over all 4 flow cells at a concentration of 25 μg/mL in 10 mM sodium acetate, pH 4.5, for 7 min. Ethanolamine (1 M, pH 8.5) was injected for 7 min to block any remaining activated groups.
# (§2) Off-rate and kinetic binding experiments were performed at 25° C. using 1×HBS-EP+ buffer. Test and control antibodies were injected over the anti-Fab or anti-Fc surface at concentrations of 5-10 μg/mL for 12 seconds at a flow rate of 10 μL/min on flow cells 2, 3 and 4, followed by a buffer wash for 30 seconds at the same flow rate. […] After capturing ligand (antibody) on the anti-Fc or anti-Fab surface, the analyte (human CD3 epsilon, Acro Cat #CDE-H5223) was bound for 180 seconds, followed by a 600 second dissociation phase at a flow rate of 50 μL/min. Between each ligand capture and analyte binding cycle, regeneration was carried out using two injections of 10 mM Glycine pH 2.0 for 30 seconds at 30 μL/min, followed by a 30 second buffer wash step.
# (§3) The data was fit with the Biacore T200 Evaluation software, using a 1-1 Langmuir binding model. KD (affinity, nM) was determined as a ratio of the kinetic rate constants calculated from the fits of the association and dissociation phases.
# [2] = biological target: T3, human CD3 on T-cell lines (CD3-expressing Jurkat cells; HUT78 cells) (human, UniProt P07766 23-207); experiment: flow cytometry, HUT78 cells
# T3 construct: On cells it stands in the CD3/TCR complex
# [3] = biological target: T2, human CD3 epsilon (Acro Cat #CDE-H5223); experiment: SPR (Biacore), antibody captured, human CD3 epsilon analyte; remark: listed apart in the source
# Protocol: as §1, §2, §3
# cynomolgus CD3 epsilon [4] = biological target: T1, cynomolgus CD3 epsilon; experiment: SPR (Biacore), antibody captured, cynomolgus CD3 epsilon analyte
# [5] = biological target: T3, human CD3 on T-cell lines …; experiment: flow cytometry, HUT78 cells; remark: listed apart in the source
# [6] = biological target: T2, human CD3 epsilon (Acro Cat #CDE-H5223); experiment: SPR (Biacore), antibody captured, human CD3 epsilon analyte; remark: listed apart in the source
# Protocol: as §1, §2, §3
# [7] = biological target: T3, human CD3 on T-cell lines …; experiment: flow cytometry, HUT78 cells; remark: listed apart in the source
# cynomolgus CD3 epsilon [8] = biological target: T1, cynomolgus CD3 epsilon; experiment: SPR (Biacore), antibody captured, cynomolgus CD3 epsilon analyte; remark: listed apart in the source
# T2 sequence (P07766 23-126 limits assumed): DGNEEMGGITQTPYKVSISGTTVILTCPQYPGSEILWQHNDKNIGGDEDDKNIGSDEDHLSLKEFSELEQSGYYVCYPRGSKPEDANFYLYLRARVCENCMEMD
# T3 sequence (P07766 23-207 limits assumed): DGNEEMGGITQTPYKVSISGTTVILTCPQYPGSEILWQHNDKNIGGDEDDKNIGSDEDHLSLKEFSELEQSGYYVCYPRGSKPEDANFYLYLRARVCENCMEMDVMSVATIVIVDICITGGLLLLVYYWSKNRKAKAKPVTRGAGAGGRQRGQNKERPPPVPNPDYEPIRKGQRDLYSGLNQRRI
Binder,Kd [1],koff [1],kon [1],Bmax (MFI) [2],Kd [2],Kd [3],koff [3],kon [3],Kd (cynomolgus CD3 epsilon [4]),koff (cynomolgus CD3 epsilon [4]),kon (cynomolgus CD3 epsilon [4]),HUT78 Bmax [5],Kd [5],binding result [6],Bmax (MFI) [7],Kd [7],binding result (cynomolgus CD3 epsilon [8])
"2037-B10_Hc-F29D (antibody, human IgG1, lambda, V domains shown, human IgG1, lambda; also called SRP 2037 F29D; 2037-B10_VH-F29D) VH: EVQLVESGGGLVKPGGSLRLSCAASGFTDNKYAMNWVRQAPGKGLEWVARIRTKYNNYATYYADSVKDRFTISRDDSKNTAYLQMNSLKTEDTAVYYCVRHGNFGNSYISYWAYWGQGTPVTVSS VL: QTVVTQEPSLTVSPGGTVTLTCGSSTGAVTSGYYPNWLQQKPGQAPRGLIGGTKFLAPGTPARFSGSLLGGKAALTLSGVQPEDEAEYYCALWYSNRWVFGGGTQLTVTG",11 nM,0.000453 s⁻¹,41200 M⁻¹ s⁻¹,1080 MFI,1.87 nM,2.36 nM,0.000491 s⁻¹,208000 M⁻¹ s⁻¹,2.69 nM,0.000573 s⁻¹,213000 M⁻¹ s⁻¹,,,,,,
"2037-B10_Hc-S107D (antibody, human IgG1, lambda, V domains shown, human IgG1, lambda; also called SRP 2037 S107D; 2037-B10_VH-S107D) VH: EVQLVESGGGLVKPGGSLRLSCAASGFTFNKYAMNWVRQAPGKGLEWVARIRTKYNNYATYYADSVKDRFTISRDDSKNTAYLQMNSLKTEDTAVYYCVRHGNFGNDYISYWAYWGQGTPVTVSS VL: QTVVTQEPSLTVSPGGTVTLTCGSSTGAVTSGYYPNWLQQKPGQAPRGLIGGTKFLAPGTPARFSGSLLGGKAALTLSGVQPEDEAEYYCALWYSNRWVFGGGTQLTVTG",5.06 nM,0.00041 s⁻¹,81000 M⁻¹ s⁻¹,1060 MFI,1.72 nM,1.47 nM,0.000215 s⁻¹,146000 M⁻¹ s⁻¹,1.64 nM,0.00034 s⁻¹,207000 M⁻¹ s⁻¹,1630,15.6 nM,,,,
"2037-B10_Hc-F104D (antibody, human IgG1, lambda, V domains shown, human IgG1, lambda; also called SRP 2037 F104D; 2037-B10_VH-F104D) VH: EVQLVESGGGLVKPGGSLRLSCAASGFTFNKYAMNWVRQAPGKGLEWVARIRTKYNNYATYYADSVKDRFTISRDDSKNTAYLQMNSLKTEDTAVYYCVRHGNDGNSYISYWAYWGQGTPVTVSS VL: QTVVTQEPSLTVSPGGTVTLTCGSSTGAVTSGYYPNWLQQKPGQAPRGLIGGTKFLAPGTPARFSGSLLGGKAALTLSGVQPEDEAEYYCALWYSNRWVFGGGTQLTVTG",3.38 nM,0.000241 s⁻¹,71200 M⁻¹ s⁻¹,617 MFI,1.72 nM,7.82 nM,0.000631 s⁻¹,80700 M⁻¹ s⁻¹,6.45 nM,0.00107 s⁻¹,166000 M⁻¹ s⁻¹,1200,23 nM,,,,
"2037-B10_Hc-Y61D (antibody, human IgG1, lambda, V domains shown, human IgG1, lambda; also called SRP 2037 Y61D; 2037-B10_VH-Y61D) VH: EVQLVESGGGLVKPGGSLRLSCAASGFTFNKYAMNWVRQAPGKGLEWVARIRTKYNNYATDYADSVKDRFTISRDDSKNTAYLQMNSLKTEDTAVYYCVRHGNFGNSYISYWAYWGQGTPVTVSS VL: QTVVTQEPSLTVSPGGTVTLTCGSSTGAVTSGYYPNWLQQKPGQAPRGLIGGTKFLAPGTPARFSGSLLGGKAALTLSGVQPEDEAEYYCALWYSNRWVFGGGTQLTVTG",3.42 nM,0.000379 s⁻¹,111000 M⁻¹ s⁻¹,689 MFI,0.32 nM,1.84 nM,0.000591 s⁻¹,321000 M⁻¹ s⁻¹,1.73 nM,0.00123 s⁻¹,709000 M⁻¹ s⁻¹,804,18.8 nM,,,,
"2037-B10_Hc-Y55D (antibody, human IgG1, lambda, V domains shown, human IgG1, lambda; also called SRP 2037 Y55D; 2037-B10_VH-Y55D) VH: EVQLVESGGGLVKPGGSLRLSCAASGFTFNKYAMNWVRQAPGKGLEWVARIRTKDNNYATYYADSVKDRFTISRDDSKNTAYLQMNSLKTEDTAVYYCVRHGNFGNSYISYWAYWGQGTPVTVSS VL: QTVVTQEPSLTVSPGGTVTLTCGSSTGAVTSGYYPNWLQQKPGQAPRGLIGGTKFLAPGTPARFSGSLLGGKAALTLSGVQPEDEAEYYCALWYSNRWVFGGGTQLTVTG",2.45 nM,0.000277 s⁻¹,113000 M⁻¹ s⁻¹,544 MFI,0.27 nM,1.31 nM,0.000372 s⁻¹,284000 M⁻¹ s⁻¹,1 nM,0.00058 s⁻¹,579000 M⁻¹ s⁻¹,1270,9.36 nM,,,,
"2037-B10-Lc1 (antibody, human IgG1, kappa; also called Kappa Lc1) heavy: not shown light: DIQMTQSPSSLSASVGDRVTITCGSSTGAVTSGYYPNWYQQKPGKAPKLLIGGTKFLAPGVPSRFSGSGSGTDFTLTISSLQPEDFATYYCALWYSNRWVFGGGTKVEIKRTVAAPSVFIFPPSDEQLKSGTASVVCLLNNFYPREAKVQWKVDNALQSGNSQESVTEQDSKDSTYSLSSTLTLSKADYEKHKVYACEVTHQGLSSPVTKSFNRGEC",,,,,,,,,,,,,,no binding,514 MFI,222 nM,no binding
"SRP 2037-B10 S107D/LC6 (antibody, human IgG1, kappa, V domains shown, human IgG1, kappa; also called 2037-B10 IgG S107D Lc6) VH: EVQLVESGGGLVKPGGSLRLSCAASGFTFNKYAMNWVRQAPGKGLEWVARIRTKYNNYATYYADSVKDRFTISRDDSKNTAYLQMNSLKTEDTAVYYCVRHGNFGNDYISYWAYWGQGTPVTVSS VL: DIQMTQSPSSLSASVGDRVTITCGSSTGAVTSGYYPNWLQQKPGQAPRGLIGGTKFLAPGVPSRFSGSLSGGKATLTISSLQPEDFATYYCALWYSNRWVFGGGTKVEIKR",8.62 nM,0.000459 s⁻¹,53200 M⁻¹ s⁻¹,,,,,,3.41 nM,0.000558 s⁻¹,164000 M⁻¹ s⁻¹,1550,17.3 nM,,,,
"SRP 2037-B10 F29D/LC6 (antibody, human IgG1, kappa, V domains shown, human IgG1, kappa) VH: EVQLVESGGGLVKPGGSLRLSCAASGFTDNKYAMNWVRQAPGKGLEWVARIRTKYNNYATYYADSVKDRFTISRDDSKNTAYLQMNSLKTEDTAVYYCVRHGNFGNSYISYWAYWGQGTPVTVSS VL: DIQMTQSPSSLSASVGDRVTITCGSSTGAVTSGYYPNWLQQKPGQAPRGLIGGTKFLAPGVPSRFSGSLSGGKATLTISSLQPEDFATYYCALWYSNRWVFGGGTKVEIKR",18.5 nM,0.000749 s⁻¹,40500 M⁻¹ s⁻¹,,,,,,5.87 nM,0.00121 s⁻¹,206000 M⁻¹ s⁻¹,1040,3.72 nM,,,,
"SRP 2037-B10 Y55D/LC6 (antibody, human IgG1, kappa, V domains shown, human IgG1, kappa) VH: EVQLVESGGGLVKPGGSLRLSCAASGFTFNKYAMNWVRQAPGKGLEWVARIRTKDNNYATYYADSVKDRFTISRDDSKNTAYLQMNSLKTEDTAVYYCVRHGNFGNSYISYWAYWGQGTPVTVSS VL: DIQMTQSPSSLSASVGDRVTITCGSSTGAVTSGYYPNWLQQKPGQAPRGLIGGTKFLAPGVPSRFSGSLSGGKATLTISSLQPEDFATYYCALWYSNRWVFGGGTKVEIKR",3.89 nM,0.000392 s⁻¹,101000 M⁻¹ s⁻¹,,,,,,2.09 nM,0.000945 s⁻¹,451000 M⁻¹ s⁻¹,1250,6.35 nM,,,,
"SRP 2037-B10 F104D/LC6 (antibody, human IgG1, kappa, V domains shown, human IgG1, kappa) VH: EVQLVESGGGLVKPGGSLRLSCAASGFTFNKYAMNWVRQAPGKGLEWVARIRTKYNNYATYYADSVKDRFTISRDDSKNTAYLQMNSLKTEDTAVYYCVRHGNDGNSYISYWAYWGQGTPVTVSS VL: DIQMTQSPSSLSASVGDRVTITCGSSTGAVTSGYYPNWLQQKPGQAPRGLIGGTKFLAPGVPSRFSGSLSGGKATLTISSLQPEDFATYYCALWYSNRWVFGGGTKVEIKR",3.7 nM,0.000374 s⁻¹,101000 M⁻¹ s⁻¹,,,,,,14.9 nM,0.00165 s⁻¹,111000 M⁻¹ s⁻¹,760,24.6 nM,,,,
"SRP 2037-B10 Y61D/LC6 (antibody, human IgG1, kappa, V domains shown, human IgG1, kappa) VH: EVQLVESGGGLVKPGGSLRLSCAASGFTFNKYAMNWVRQAPGKGLEWVARIRTKYNNYATDYADSVKDRFTISRDDSKNTAYLQMNSLKTEDTAVYYCVRHGNFGNSYISYWAYWGQGTPVTVSS VL: DIQMTQSPSSLSASVGDRVTITCGSSTGAVTSGYYPNWLQQKPGQAPRGLIGGTKFLAPGVPSRFSGSLSGGKATLTISSLQPEDFATYYCALWYSNRWVFGGGTKVEIKR",3.63 nM,0.000369 s⁻¹,102000 M⁻¹ s⁻¹,,,,,,3.99 nM,0.00154 s⁻¹,387000 M⁻¹ s⁻¹,737,6.61 nM,,,,
